These results are taken from PMC11026473.

The target in this assay is myc-Xbra (UniProt P24781). Nature of the assay: co-immunoprecipitation (IP: Flag, WB: Myc), band intensity quantified. To be noted: Xenopus embryos injected with flag-smad1 constructs and myc-xbra; parent: est. 1.0; read off a plot.
UniProt P24781, sequence (P24781 whole entry): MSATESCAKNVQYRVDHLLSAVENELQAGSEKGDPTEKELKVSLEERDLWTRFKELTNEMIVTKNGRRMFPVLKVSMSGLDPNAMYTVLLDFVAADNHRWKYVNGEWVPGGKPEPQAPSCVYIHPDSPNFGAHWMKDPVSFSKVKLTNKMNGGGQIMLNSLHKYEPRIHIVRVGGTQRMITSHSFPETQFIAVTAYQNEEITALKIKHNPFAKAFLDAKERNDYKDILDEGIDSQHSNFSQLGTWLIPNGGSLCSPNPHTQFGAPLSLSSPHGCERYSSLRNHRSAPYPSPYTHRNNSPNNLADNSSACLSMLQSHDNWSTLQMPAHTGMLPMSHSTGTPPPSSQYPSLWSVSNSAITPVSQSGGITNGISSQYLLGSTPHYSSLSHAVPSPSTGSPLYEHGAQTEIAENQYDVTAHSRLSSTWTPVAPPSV

In the case of “flag-Smad1 (WT) (from UniProt Q15797) S187D; S196D; S206D; S214D; C-terminal SSXS to DDXD (4SD3SD)”, the ratio to parent turned out to be 4.1.
Then “flag-Smad1 (WT) (from UniProt Q15797) S187A; S196A; S206A; S214A; C-terminal SSXS to DDXD (4SA3SD)”, with 0.65.
